Assay [1] has as its target HLA-E/… (V-0025, HLA-G signal peptide) complex on cells (human) (UniProt P13747). As to the kind of experiment: flow cytometry, K562.E +V-0025, column 0 µg/mL +mIgG1.
Assay [2] deals with HLA-E on cells that do not present the HLA-G signal peptide (unpulsed K562.E cells; HLA-E positive, HLA-G negative cells; Tap-1 knock-out cells) (human) (UniProt P13747). As to the kind of experiment: flow cytometry, K562.E, column 0 µg/mL +mIgG1. For orientation: Flow cytometry measures light scatter and fluorescence of single cells or particles in a stream.
Sequence of HLA-E on cells that do not present the HLA-G signal peptide (unpulsed K562.E cells; HLA-E positive, HLA-G negative cells; Tap-1 knock-out cells) (human) (P13747 22-358): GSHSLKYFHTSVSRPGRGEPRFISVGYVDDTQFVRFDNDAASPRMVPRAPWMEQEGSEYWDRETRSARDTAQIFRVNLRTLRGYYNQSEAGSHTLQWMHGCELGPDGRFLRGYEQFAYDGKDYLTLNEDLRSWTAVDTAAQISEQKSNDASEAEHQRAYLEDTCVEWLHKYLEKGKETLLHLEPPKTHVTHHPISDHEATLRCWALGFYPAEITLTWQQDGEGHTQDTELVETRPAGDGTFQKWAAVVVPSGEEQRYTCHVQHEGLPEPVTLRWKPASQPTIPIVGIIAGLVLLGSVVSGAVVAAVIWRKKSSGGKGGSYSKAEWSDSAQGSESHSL
The target of assay [3] is V-0025 (…, HLA-G signal peptide)/HLA-E*0103 monomer complex (human). As to the kind of experiment: ELISA, V-0025 at 0.25 µg/mL, antibody titrated from 2 µg/mL to 3.8 pg/mL. For orientation: ELISA stands for enzyme-linked immunosorbent assay.
Assay [4] has as its target V-0045 (…)/HLA-E 01:03 monomer complex (human). As to the kind of experiment: ELISA, monomer at 0.25 ug/ml on neutravidin plate (FIG. 9B).
Assay [5] deals with V-0041 (…)/HLA-E 01:03 monomer complex (human). The assay is described as above.
Assay [6] has as its target V-0040 (…)/HLA-E 01:03 monomer complex (human). The assay is described as above.
Assay [7] addresses V-0038 (…, Hsp60)/HLA-E 01:03 monomer complex (human). The assay is described as above.
For assay [8], the target named is V-0044 (…)/HLA-E 01:03 monomer complex (human). The assay is described as above.
Assay [9] deals with V-0042 (…)/HLA-E 01:03 monomer complex (human). Described as above.
The target of assay [10] is P-0550 (…, PODXL2)/HLA-E 01:03 monomer complex (human). The assay is described as above.
In assay [11] the target is V-0035 (…)/HLA-E 01:03 monomer complex (human). Described as above.
Assay [12] addresses V-0046 (…)/HLA-E 01:03 monomer complex (human). The assay is described as above.
Assay [13] has as its target V-0021 (…)/HLA-E 01:03 monomer complex (human). The description is as above.
Assay [14] concerns the target T1, V-0025 (…, HLA-G signal peptide)/HLA-E*0103 monomer complex (human).
T1 construct: also called ABI-V-0025; 0025-E 01:03 monomer complex
As to the kind of experiment: ELISA, V-0025 at 0.25 µg/mL, antibody titrated from 2 µg/mL to 3.8 pg/mL.

For the next assay, the target named is peptide-empty HLA-E (human). As to the kind of experiment: ELISA, ABX0011 in mouse serum, HLA-E 01:03 monomers.
Assay [15] concerns the target T2, HLA-G on cell lines that express HLA-G but not HLA-E (human, UniProt P17693 25-338).
T2 construct: whole, on cells
As to the kind of experiment: flow cytometry, IFNγ-stimulated JEG3 HLA-E knock-out.

The target in assay [16] is T1, V-0025 (…, HLA-G signal …). As to the kind of experiment: label-free ResoSens instrument; ABX0011 captured by anti-IgG-Fc, monomer complex in serial dilutions from 5 µg/ml; monovalent.
In assay [17] the target is V-0034 (…)/HLA-E 01:03 monomer complex (human). As to the kind of experiment: ELISA, monomers on a neutravidin plate.
The target of assay [18] is V-0037 (…)/HLA-E 01:03 monomer complex (human). As to the kind of experiment: ELISA, monomers on a neutravidin plate.
The target in assay [19] is V-0043 (…)/HLA-E 01:03 monomer complex (human). As to the kind of experiment: ELISA, monomers on a neutravidin plate.
Assay [20] has as its target T3, V-0034 (…) pulsed on K562 cells expressing HLA-E (human, UniProt P13747 22-358; P61769 21-119). As to the kind of experiment: flow cytometry, ABX0011 staining with Fc block, K562.E cells pulsed with 20 ug/mL peptide for 2hr.
Assay [21] addresses T4, P-0550 (…, PODXL2) pulsed on K562 cells expressing HLA-E (human, UniProt P13747 22-358; P61769 21-119). Described as above.
Assay [22] addresses T5, HLA-E/… (V-0025, HLA-G signal peptide) complex on cells (human, UniProt P13747 22-358; P61769 21-119).
T5 construct: also called K562.E + V-0025; V-0025 peptide pulsed K562 cells expressing HLA-E
Described as above.

For assay [23], the target named is T2, HLA-G on cell lines that express HLA-G …. As to the kind of experiment: flow cytometry, JEG3 stimulated with IFNγ (FIG. 25A of the legend).
In assay [24] the target is V-0041 (…) pulsed on K562 cells expressing HLA-E (human, UniProt P13747 22-358; P61769 21-119). As to the kind of experiment: flow cytometry, peptide-pulsed K562.E cells, antibody molecules per cell.
Assay [25] addresses T3, V-0034 (…) pulsed on K562 cells …. Described as above.
For assay [26], the target named is T4, P-0550 (…, PODXL2) pulsed on K562 cells …. The description is as above.
Assay [27] concerns the target V-0045 (…) pulsed on K562 cells expressing HLA-E (human, UniProt P13747 22-358; P61769 21-119). The description is as above.
In assay [28] the target is V-0040 (…) pulsed on K562 cells expressing HLA-E (human, UniProt P13747 22-358; P61769 21-119). Described as above.
The target of assay [29] is V-0043 (…) pulsed on K562 cells expressing HLA-E (human, UniProt P13747 22-358; P61769 21-119). The assay is described as above.
Assay [30] concerns the target V-0021 (…) pulsed on K562 cells expressing HLA-E (human, UniProt P13747 22-358; P61769 21-119). Described as above.
Assay [31] addresses V-0037 (…) pulsed on K562 cells expressing HLA-E (human, UniProt P13747 22-358; P61769 21-119). The description is as above.
Assay [32] addresses V-0042 (…) pulsed on K562 cells expressing HLA-E (human, UniProt P13747 22-358; P61769 21-119). The description is as above.
The target in assay [33] is V-0038 (…, Hsp60) pulsed on K562 cells expressing HLA-E (human, UniProt P13747 22-358; P61769 21-119). The assay is described as above.
Assay [34] deals with V-0046 (…) pulsed on K562 cells expressing HLA-E (human, UniProt P13747 22-358; P61769 21-119). The assay is described as above.
In assay [35] the target is V-0035 (…) pulsed on K562 cells expressing HLA-E (human, UniProt P13747 22-358; P61769 21-119). Described as above.
The target in assay [36] is V-0044 (…) pulsed on K562 cells expressing HLA-E (human, UniProt P13747 22-358; P61769 21-119). Described as above.

Like-named read-outs stand apart in the source and are kept apart here.

Regarding mIgG1 (antibody), the values for the % of cells in Q3 (HLA-E channel +, Fab-scFv-Fc -) in assay [1] and in assay [2] were 0.37 and 0.39, respectively.
Usually EC50 (read off the curve) stands for the concentration needed to bring the measured effect to its halfway point. Read a low EC50 (read off the curve) as an effect from little substance. In assay [3], anti-HLA-E antibody clone 3D12 registered an EC50 (read off the curve) of 7 ng/mL.

B1: ABX0011 (antibody, V domains shown)
VH: EVQLLESGGGLVQPGGSLRLSCAASGFTFSSYAMSWVRQAPGKGLEWVSTIAYGGGATAYADSVKGRFTISRDNSKNTLYLQMNSLRAEDTAVYYCAKGLSNFDYWGQGTLVTVSS
VL: DIQMTQSPSSLSASVGDRVTITCRASQSISSYLNWYQQKPGKAPKLLIYAASSLQSGVPSRFSGSGSGTDFTLTISSLQPEDFATYYCQQAAAYPSLFGQGTKVEIK
notes: also called ABX-11; R2-C02 as hIgG1
Broadly, the Kd is the free concentration of one partner at which half of the binding sites on the other are occupied at equilibrium, for simple one-to-one binding. A higher Kd goes with lower affinity. Consider B1, for which the binding result in assay [4], in [5], in assay [6], in [7], in assay [8] and in assay [9] was “no binding (tested: 1 ug/ml)” each time. For the same molecule, the binding result in assay [10] is “no binding (tested: 1 ug/ml)”; in assay [11], “no binding (tested: 1 ug/ml)”; in assay [12], “no binding (tested: 1 ug/ml)”; in [13], “no binding (tested: 1 ug/ml)”; with peptide-empty HLA-E, “no binding (tested: 1 µg/ml)”; in [15] it was “no binding (tested: 1 µg/mL)”. For the same molecule, the binding result in [17] was “no binding (tested: 1 ug/ml)”; in assay [18], “no binding (tested: 1 ug/ml)”; in assay [19] it was “no binding (tested: 1 ug/ml)”; in [20], “no binding (tested: 10 µg/mL)”; in assay [21], “no binding (tested: 10 µg/mL)”. Further, the “EC50 (read off the curve)” value in [14] was roughly 1 ng/mL; in assay [22] it was roughly 0.05 µg/mL. In assay [16], this molecule gave a Kd of 7.9 nM.

B2: ABX0012 (ABX0011 with mouse IgG1) (antibody, V domains shown)
VH: EVQLLESGGGLVQPGGSLRLSCAASGFTFSSYAMSWVRQAPGKGLEWVSTIAYGGGATAYADSVKGRFTISRDNSKNTLYLQMNSLRAEDTAVYYCAKGLSNFDYWGQGTLVTVSS
VL: DIQMTQSPSSLSASVGDRVTITCRASQSISSYLNWYQQKPGKAPKLLIYAASSLQSGVPSRFSGSGSGTDFTLTISSLQPEDFATYYCQQAAAYPSLFGQGTKVEIKR
notes: also called ABX012; AB0012
On to B2, for which the binding result in assay [23], in assay [24], in assay [25], in assay [26], in assay [27] and in assay [28] was “no binding” in each case. For the same molecule, the binding result in assay [29], in assay [30], in assay [31], in assay [32], in assay [33] and in assay [34] was “no binding” in each case. Also, the binding result in assay [35] and in assay [36] was “no binding” in each case.

The record behind these values is patent US20230303701A1 (ABEXXA BIOLOGICS, published 2023).
